Data set [1] concerns the target T1, MvaT-His (Pseudomonas aeruginosa (PAO1?)) (UniProt Q9HW86).
T1 sequence: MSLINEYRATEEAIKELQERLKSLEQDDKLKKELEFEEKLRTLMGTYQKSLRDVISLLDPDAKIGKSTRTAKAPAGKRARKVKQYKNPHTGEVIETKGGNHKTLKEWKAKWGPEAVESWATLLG
Put plainly: EMSA.

Data set [2] addresses T2, LUZ24 gp4 (Mip) (Pseudomonas phage LUZ24) (UniProt A9J6U1).
T2 sequence: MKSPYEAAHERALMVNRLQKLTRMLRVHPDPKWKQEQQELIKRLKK
Put plainly: EMSA.

Data set [3] addresses LUZ24 gp4 (yeast two-hybrid bait) (Pseudomonas aeruginosa phage LUZ24). Put plainly: two-hybrid; alpha-galactosidase activity of the yeast two-hybrid pairs, in milliunits per ml per cell, for a relative comparison of interaction strengths.

As for “CATGAGGCCAGGACGTTGTTCATGAAAACCGAATAATCGTTTCGAATGATGGTTTGCAATTATTAATGTCGAATGGAATGAATGTGCCATATCTCCATAAATAAAAAGGAAGTTTGTCCAATACTTGAGAAACTACTTTAAGAAGGTTTTGTCGGTAGAAAGCGATCAATC (double strand) [ptxS upstream region 150 bp]”, the results for the binding result in data set [1] and in data set [2] were “binds” and “no binding”, respectively.

B1: MvaT (PA4315) prey fragment, amino acids 1-80 (domain or fragment)
chain: MSLINEYRATEEAIKELQERLKSLEQDDKLKKELEFEEKLRTLMGTYQKSLRDVISLLDPDAKIGKSTRTAKAPAGKRAR
For the molecule B1, the α-Gal activity (milliunits per ml per cell) in data set [3] was 23.1.
